{"source": "paper PMC11948038", "about": "(2025)", "binders": {"B1": {"name": "full-length ANP32A (natural protein)", "chain": "MEMGRRIHLELRNRTPSDVKELVLDNSRSNEGKLEGLTDEFEELEFLSTINVGLTSIANLPKLNKLKKLELSDNRVSGGLEVLAEKCPNLTHLNLSGNKIKDLSTIEPLKKLENLKSLDLFNCEVTNLNDYRENVFKLLPQLTYLDGYDRDDKEAPDSDAEGYVEGLDDEEEDEDEEEYDEDAQVVEDEEDEDEEEEGEEEDVSGEEEEDEEGYNDGEVDDEEDEEELGEEERGQKRKREPEDEGEDDD"}}, "target": "cytochrome c (UniProt P99999 2-105)", "sequence (P99999 2-105)": "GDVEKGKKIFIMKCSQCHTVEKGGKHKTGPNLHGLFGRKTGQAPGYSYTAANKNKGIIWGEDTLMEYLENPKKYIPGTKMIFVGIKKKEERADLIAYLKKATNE", "assay": "NMR", "data": [{"binder": "B1", "values": [{"measurement": "Kd", "result": 379, "unit": "µM"}]}]}
